B1: Noxa (18-43) BH3 peptide, human (peptide)
peptide: PAELEVECATQLRRFGDKLNFRQKLL
B2: Bid (81-104) BH3 peptide, human (peptide)
peptide: DIIRNIARHLAQVGDSMDRSIPPG
B3: m Bmf (128-151) BH3 peptide (peptide)
peptide: HRAEVQIARKLQCIADQFHRLHTQ
B4: Bad (103-128) BH3 peptide, human (peptide)
peptide: NLWAAQRYGRELRRMSDEFVDSFKKG

Columns and labels:
[1] = biological target: mouse Mcl-1 ΔN151 ΔC23 (mouse) (UniProt P97287); test: Biacore solution competition against immobilised mouse wtBimBH3
mouse A1 ΔC20 (mouse) [2] = biological target: mouse A1 ΔC20 (mouse) (UniProt Q07440); test: as above
Bcl-2, BCl-xL and Bcl-w = test: solution competition on Biacore
mouse A1 ΔC20 (mouse) [3] = biological target: mouse A1 ΔC20 (mouse) (UniProt Q07440); test: solution competition on Biacore

Chain of mouse A1 ΔC20 (mouse) (Q07440 other isoform, or with tags, fused parts or gaps mutant): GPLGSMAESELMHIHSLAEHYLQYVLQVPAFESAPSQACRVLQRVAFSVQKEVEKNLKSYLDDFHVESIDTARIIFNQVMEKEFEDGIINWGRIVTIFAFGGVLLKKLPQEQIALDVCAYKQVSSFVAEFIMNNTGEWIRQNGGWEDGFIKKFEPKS
Chain of mouse Mcl-1 ΔN151 ΔC23 (mouse) (P97287 other isoform, or with tags, fused parts or gaps mutant): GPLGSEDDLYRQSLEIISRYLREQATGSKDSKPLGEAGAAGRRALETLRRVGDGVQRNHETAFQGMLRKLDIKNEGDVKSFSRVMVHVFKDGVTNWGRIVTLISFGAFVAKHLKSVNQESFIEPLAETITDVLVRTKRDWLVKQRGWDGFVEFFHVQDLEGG

Row | Binder | IC50 [1] [nM] | IC50 (mouse A1 ΔC20 (mouse) [2]) [nM] | IC50 (Bcl-2, BCl-xL and Bcl-w) [nM] | IC50 (mouse A1 ΔC20 (mouse) [3]) [nM]
1 | B1 | 24 | 180 |  | 
2 | B2 |  | 9.3 |  | 
3 | B3 | 1100 | 1800 |  | 
4 | B4 | > 100000 | 15000 | 5.3 to 30 | 15000
